This note sets out measurements from the supplement of paper PMC12764529.

Data set [1] can be described thus: folding stability dG unfold from trypsin proteolysis; higher = more stable. The method, boiled down:
(§1)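 Unfolding free energy was derived, per protease or combined, by relating Bayesian-fitted K50 values from sequencing counts to a sequence-predicted unfolded-state K50 and a shared folded-state K50. The underlying digests exposed cysteine-free mini-proteins under 80 residues, in a PA-tagged cDNA display construct, to trypsin and chymotrypsin at 11 threefold-diluted concentrations and to a no-protease condition. A filter kept only designs with AlphaFold2 dimer inter-PAE above 15.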

Data set [2] is described as follows: folding stability dG unfold from chymotrypsin proteolysis; higher = more stable. The method, boiled down: as §1
The nature of data set [3]: folding stability dG unfold (combined trypsin and chymotrypsin); higher = more stable. The method, boiled down: as §1

± gives the half width of the 95% confidence interval.

“SAMDFKAEKVEILKVEKLKDGTVKITVKVEVGKYVLNAEIPYGKDGKIEKIEAEIDLENNFMTYKVTVGSAG [r14_189_TrMRF]”: the “folding stability dG unfold” value worked out at 1.58 ± 0.19 kcal/mol in data set [1], 2.24 ± 0.13 kcal/mol in data set [2] and 1.97 ± 0.33 kcal/mol in data set [3].

In the case of “SAMEALEEAGFEVVEVEEVEERELPDGKRLVRLRITVRRDGKLVELEIVVPEENEEEALRAALELLREESAG [r14_726_TrROS_Hall]”, the entries for the “folding stability dG unfold” value in data set [1], in data set [2] and in data set [3] were 4.49 ± 0.18 kcal/mol, 4.4 ± 0.099 kcal/mol and 4.44 ± 0.11 kcal/mol, respectively.

For the sequence “SAMEITETSLDSSTLYTFPGRRITITTTPDSYTITITLPDGTPVTLNFPPTMPLDEVKKKVIETLLASSSAG [r14_618_JUSTAS]”, the “folding stability dG unfold” value worked out at 0.935 ± 0.05 kcal/mol in data set [1], 1.24 ± 0.16 kcal/mol in data set [2] and 1.19 ± 0.12 kcal/mol in data set [3].

For the sequence “SAMEITIEKDENGNIRITLKLDGAEIIEEKEVPPGEKEKTIKIKVDGKVLELTIKDGKIEIKEVSPEDLSAG [r14_403_TrROS_Hall]”, the figures for the “folding stability dG unfold” value in data set [1], in data set [2] and in data set [3] were 2.93 ± 0.14 kcal/mol, 3.55 ± 0.1 kcal/mol and 3.44 ± 0.13 kcal/mol, respectively.

In the case of “SAMEVVEERELPDGTTVVTIPDPATGDTVVLVTDPEGKITVYTYPSSTGIPTEEVFPDLSVEEAIARLASAG [r14_760_JUSTAS]”, the “folding stability dG unfold” value in data set [1] worked out at 0.645 ± 0.046 kcal/mol; in data set [2], 0.858 ± 0.071 kcal/mol; in data set [3], 0.775 ± 0.058 kcal/mol.

For the sequence “SAMIIIRVKSKEELEEAIRRLAEELGIEDATLEQIREALLRAGAKIVSIERDPEREDYVLIVIELPPEPSAG [r14_678_TrROS_Hall]”, the “folding stability dG unfold” value worked out at 4.01 ± 0.1 kcal/mol in data set [1], 4.1 ± 0.084 kcal/mol in data set [2] and 4.05 ± 0.071 kcal/mol in data set [3].

On to “SAMILPKTVPKTITYPGSEEEARAVAEAEAARLKAQGNVTVDITFVKKSPEGGYTIEITITDYAPPELLSAG [r14_413_JUSTAS]”, for which the figures for the “folding stability dG unfold” value in data set [1], in data set [2] and in data set [3] were 0.77 ± 0.12 kcal/mol, 0.933 ± 0.28 kcal/mol and 0.861 ± 0.23 kcal/mol, respectively.

With “SAMITITLPNGTPVNVEVTVTETRASPDGTLTTTDYELTFHPPDGVPRRGKGTVLSDPATGTTTITIIESAG [r14_789_JUSTAS]”, the entries for the “folding stability dG unfold” value in data set [1], in data set [2] and in data set [3] were 1.47 ± 0.041 kcal/mol, 1.45 ± 0.028 kcal/mol and 1.48 ± 0.042 kcal/mol, respectively.

Take “SAMITVPFTFPAEKAEEILEDPELKELLEKLEKELGAKVVKIEVSPETVPSGSKTTEYVKFTFTIEKKGSAG [r14_819_JUSTAS]”: the “folding stability dG unfold” value in data set [1] came out at 1.2 ± 0.032 kcal/mol; in data set [2] it was 1.8 ± 0.16 kcal/mol; in data set [3], 1.55 ± 0.16 kcal/mol.

As to “SAMKEAKIVSIEFDEETGTVTIEIEVPPGAKLKIRFLDTGEELEVEVKPGETITITVPKEPILIEIELESAG [r14_96_TrROS_Hall]”, the “folding stability dG unfold” value in data set [1] turned out to be 3.43 ± 0.18 kcal/mol; in data set [2], 4.09 ± 0.24 kcal/mol; in data set [3], 3.79 ± 0.54 kcal/mol.

As for “SAMKEGETVRIELVVVVPPGASVEELADALRALFGPDAEIRVEVEEVTVEVDGKTYRVLTVRVEIRLRKSAG [r14_633_TrROS_Hall]”, the entries for the “folding stability dG unfold” value in data set [1], in data set [2] and in data set [3] were 3.44 ± 0.05 kcal/mol, 4.5 ± 0.059 kcal/mol and 4.18 ± 0.057 kcal/mol, respectively.

Turning to “SAMKEGQRLLVVKITIYNKNGEKVEELELVVPEEDKEKALEAAKKLAEELAKKLNLEIKIEVEEVPLPPSAG [r14_146_TrROS_Hall]”, the “folding stability dG unfold” value turned out to be 3.14 ± 0.2 kcal/mol in data set [1], 4.02 ± 0.078 kcal/mol in data set [2] and 3.86 ± 0.13 kcal/mol in data set [3].

“SAMKEMTAEELAKKLEEELRKLFPDVEIKVEIVEVKEDYVVIKVEITVRLKKPDGKEVEFKLELVLKVDSAG [r14_187_TrROS_Hall]”: the “folding stability dG unfold” value in data set [1] worked out at 3.1 ± 0.41 kcal/mol; in data set [2], 3.55 ± 0.15 kcal/mol; in data set [3], 3.4 ± 0.32 kcal/mol.

Consider “SAMKFKITEVKIISVEKKKDGKKTIVIEMKVEKGEEKITIEFDKNGKIKKVSVEKLPDGKTVRVTIEIDSAG [r14_189_TrROS_Hall]”, for which the entries for the “folding stability dG unfold” value in data set [1], in data set [2] and in data set [3] were 1.49 ± 0.28 kcal/mol, 2.95 ± 0.087 kcal/mol and 2.52 ± 0.49 kcal/mol, respectively.

With “SAMKIEPVPDPEHGRTYYTIKFKGAEVQIWENPGQYYISIRPPGNNKQIVIPAPPNDIDDILKELGIKPSAG [r14_4_TrROS]”, the “folding stability dG unfold” value in data set [1] turned out to be 1.06 ± 0.032 kcal/mol; in data set [2], 1.71 ± 0.16 kcal/mol; in data set [3] it was 1.4 ± 0.17 kcal/mol.

“SAMKIKPVPDPVTGKTKYVIDFGDAEVVIYHFPNSYRIEVRKKPDNKTIVIEAKPNEIEEVLKELGLPASAG [r14_4_TrMRF]”: the entries for the “folding stability dG unfold” value in data set [1], in data set [2] and in data set [3] were 1.4 ± 0.12 kcal/mol, 1.85 ± 0.12 kcal/mol and 1.86 ± 0.16 kcal/mol, respectively.

With “SAMKIYTLPDGSRLIVIPDPYSDSLSVLLVTRSPDGTYHVTLIRYHPNGEKETFTRTGDLETAIRELLSSAG [r14_179_TrMRF]”, the results for the “folding stability dG unfold” value in data set [1], in data set [2] and in data set [3] were 3.55 ± 0.077 kcal/mol, 3.588 ± 0.028 kcal/mol and 3.67 ± 0.091 kcal/mol, respectively.

Turning to “SAMKKITLDVYRPPDKLLVTVSFPETGKTVTLPFTSEEALREEIVKKLGLSPEELEIVDRKEKELSPELLSA [r9_909_JUSTAS]”, the figures for the “folding stability dG unfold” value in data set [1], in data set [2] and in data set [3] were 0.194 ± 0.054 kcal/mol, 0.623 ± 0.074 kcal/mol and 0.46 ± 0.13 kcal/mol, respectively.

Regarding “SAMKKVEIEIEVVEVDGELYILIKIKAETPEEVKEAAEKLLKELGLPPEAEVEVVEKDGEVYILIRLKPSAG [r14_804_TrROS_Hall]”, the figures for the “folding stability dG unfold” value in data set [1], in data set [2] and in data set [3] were 3.08 ± 0.082 kcal/mol, 4.53 ± 0.05 kcal/mol and 4.17 ± 0.13 kcal/mol, respectively.

For “SAMKLEAPVVLDGKPVEVEFDAEPFEAPDGDVYYLVPLKVTFPDGRTYTARLRLKPGGKIVSVELLSDESAG [r14_341_TrMRF]”, the results for the “folding stability dG unfold” value in data set [1], in data set [2] and in data set [3] were 1.93 ± 0.028 kcal/mol, 1.31 ± 0.19 kcal/mol and 1.77 ± 0.061 kcal/mol, respectively.

“SAMKLPPGVEAEVLEVTVDEEVTITIKLEDETVVIVNEKTGEVTVIKPGETVTITMKPGEKLRIIVIKPSAG [r14_385_TrROS_Hall]”: the “folding stability dG unfold” value in data set [1] was found to be 3.2 ± 0.28 kcal/mol; in data set [2] it was 1.65 ± 0.047 kcal/mol; in data set [3], 2.58 ± 0.24 kcal/mol.

For the sequence “SAMKLTVSSSSPEEAQAQAEALKAQLRAELAAAGHPGAEVPVEITVTAVPPPVPVDVADPTSDRWSPTPSAG [r14_475_JUSTAS]”, the figures for the “folding stability dG unfold” value in data set [1], in data set [2] and in data set [3] were 0.804 ± 0.033 kcal/mol, -0.694 ± 0.18 kcal/mol and 0.393 ± 0.07 kcal/mol, respectively.

With “SAMKNMTPEEVAKLIEEEIRKLYPNAEVKVEVLDAPEDYLVLKVHVTVIEPEEEGEIREFPFLVVIDLSSAG [r14_187_TrMRF]”, the “folding stability dG unfold” value in data set [1] stood at 3.47 ± 0.15 kcal/mol; in data set [2], 3.31 ± 0.062 kcal/mol; in data set [3] it was 3.33 ± 0.09 kcal/mol.

On to “SAMKTETITVPGLKIEVTENKDGKKTIKITAATPEQAEEWLKKNPELRKLIEELEKAGYKVEITVLPPPSAG [r14_873_TrROS_Hall]”, for which the “folding stability dG unfold” value in data set [1] turned out to be 3.4 ± 0.17 kcal/mol; in data set [2] it was 2.83 ± 0.051 kcal/mol; in data set [3], 3.01 ± 0.049 kcal/mol.

On to “SAMKVEPFTFKVTFKVPVLNPETGEATEEGVEAEVVVYRSDDGTLYVVAFVKFENGKTAVFPFTIDKDGSAG [r14_50_TrMRF]”, for which the “folding stability dG unfold” value in data set [1] came to 3.19 ± 0.1 kcal/mol; in data set [2] it was 3.781 ± 0.029 kcal/mol; in data set [3], 3.59 ± 0.064 kcal/mol.

As to “SAMLGAEELVRRIAEEIERRLGVPAGFDVPVRVYRPEDALVIDAYIVARGPDGEPLGERRITLVLRPEDSAG [r14_708_TrMRF]”, the “folding stability dG unfold” value is 1.94 ± 0.032 kcal/mol in data set [1], 3.49 ± 0.051 kcal/mol in data set [2] and 2.93 ± 0.11 kcal/mol in data set [3].

“SAMLSPAEIKRPRLLEIIETIKKLGNFSVDIKRLPGDGDVKVKIELDPNKIEEAAKITGIPLSEIKKLVSAG [r14_688_JUSTAS]”: the “folding stability dG unfold” value in data set [1] was determined as 0.923 ± 0.15 kcal/mol; in data set [2], 0.748 ± 0.1 kcal/mol; in data set [3] it was 0.673 ± 0.31 kcal/mol.

Take “SAMLVITRPDGRPYLVRLKVDKVEPSPDGTLITVEFTLELFSPDGTPETFKGTLIFDPKTGKLVLKIDPSAG [r14_789_TrMRF]”: the “folding stability dG unfold” value is 2.83 ± 0.056 kcal/mol in data set [1], 3.71 ± 0.014 kcal/mol in data set [2] and 3.42 ± 0.075 kcal/mol in data set [3].

For the sequence “SAMLVVELEVDLPELKYMTPEEAEEIAEALAVEAAKELFPESDVKVKEVVVEPEPETGKLKVTVVLENESAG [r14_310_TrMRF]”, the “folding stability dG unfold” value in data set [1] worked out at 2.18 ± 0.13 kcal/mol; in data set [2], 2.51 ± 0.048 kcal/mol; in data set [3], 2.46 ± 0.081 kcal/mol.

Turning to “SAMNLKTFKIEVPDGKIFTIPPNYKAEIVEYDPEKGVVTIKLTAYETNPLKEVEKKEFSFKFKFLEEFPSAG [r14_927_TrMRF]”, the “folding stability dG unfold” value in data set [1] came to 1.181 ± 0.011 kcal/mol; in data set [2], 1.62 ± 0.082 kcal/mol; in data set [3], 1.46 ± 0.086 kcal/mol.

“SAMNTRTVTLTIERPPGSPETLEAVRARLAALGFTVTSESEEVLPDESLTRVTLTVEDPGVPETLLALLSAG [r14_956_JUSTAS]”: the “folding stability dG unfold” value in data set [1] amounted to 1.65 ± 0.021 kcal/mol; in data set [2], 2.03 ± 0.057 kcal/mol; in data set [3], 1.91 ± 0.06 kcal/mol.

Consider “SAMPIDITVEGVERPPDSVVVHLRLDPSVPSDLAVTVKVRGADGTVLEVPAEDRTATLRVPSSDVVVDLSAG [r14_350_JUSTAS]”, for which the “folding stability dG unfold” value was found to be 0.387 ± 0.11 kcal/mol in data set [1], 0.912 ± 0.24 kcal/mol in data set [2] and 0.78 ± 0.16 kcal/mol in data set [3].

Take “SAMPLLVKVTFYPKDPVTGIPSEEIEEKEVPDIEEAIKEVKKKLPKDNSAKIEVLDENGKLLKTIDLNLSAG [r14_234_JUSTAS]”: the “folding stability dG unfold” value came to 0.721 ± 0.029 kcal/mol in data set [1], 0.885 ± 0.11 kcal/mol in data set [2] and 0.845 ± 0.12 kcal/mol in data set [3].

With “SAMPVLVVIKRTVVLPRPGEELAKYEDPDGKVRRRVVVETLVVEVNPEDLPELVEFFKSLGIDEISVFGSAG [r14_509_TrMRF]”, the results for the “folding stability dG unfold” value in data set [1], in data set [2] and in data set [3] were 2.18 ± 0.039 kcal/mol, 2.22 ± 0.031 kcal/mol and 2.13 ± 0.11 kcal/mol, respectively.

On to “SAMRFVVRVEGDLEEVERALREEFDFEMEAEREEDGRLVVVVEAEPEELERLVEALERLPDFPVEIEPESAG [r14_521_TrMRF]”, for which the “folding stability dG unfold” value in data set [1] was found to be 1.01 ± 0.027 kcal/mol; in data set [2] it was 0.716 ± 0.1 kcal/mol; in data set [3], 0.93 ± 0.062 kcal/mol.
